Test results from patent publication US6570069B1, “Nucleic acids encoding plant inhibitors of apoptosis and transgenic cells and plants expressing them” (priority 2000, dated 2003).
Entries after “also recorded” stand apart in the source; their conditions may differ.

B3: recombinant purified caspase-3 (enzyme, mammalian)
chain: SGISLDNSYKMDYPEMGLCIIINNKNFHKSTGMTSRSGTDVDAANLRETFRNLKYEVRNKNDLTREEIVELMRDVSKEDHSKRSSFVCVLLSHGEEGIIFGTNGPVDLKKITNFFRGDRCRSLTGKPKLFIIQACRGTELDCGIETDSGVDDDMACHKIPVEADFLYAYSTAPGYYSWRNSKDGSWFIQSLCAMLKQYADKLEFMHILTRVNRKVATEFESFSFDATFHAKKQIPCIVSMLTKELYFYHHHHHHH
notes: also called caspases-3
B4: GST-CpIAP (other)
chain: MSDLRLEEVRLNTFEKWPVSFLSPETMAKNGFYYLGRSDEVRCAFCKVEIMRWKEGEDPAADHKKWAPQCPFVKGIDVCGSIVTTNNIQNTTTHDTIIGPAHPKYAHEAARVKSFHNWPRCMKQRPEQMADAGFFYTGYGDNTKCFYCDGGLKDWEPEDVPWEQHVRWFDRCAYVQLVKGRDYVQKVITEACVLPGENTTVSTAAPVSEPIPETKIEKEPQVEDSKLCKICYVEECIVCFVPCGHVVACAKCALSVDKCPMCRKIVTSVLKVYFS
notes: range 1-275

Legend:
[1] = target: GST-SfIAP (Spodoptera frugiperda); assay: cell-based or functional assay
SfIAP = assay: Grim peptide effect on SfIAP-mediated suppression of caspases in cyto c-stimulated cell extracts; format: biochemical, Spodoptera frugiperda; conditions: cyto c-stimulated cytosol extracts
Method: (§1) Caspase activity was assayed by release of 7-amino-4-trifluoromethyl-coumarin (AFC) from Ac-DEVD or Ac-LEHD-containing synthetic peptides (Calbiochem) using continuous-reading instuments as described (Quan, L. T. et al., (1995) J. Biol. Chem. 270:10377-10379).
(§2) Cytosolic extracts were prepared as described (Deveraux, Q., Takahashi, R., Salvesen, G. S. & Reed, J. C. (1997) Nature 388, 300-303) using human embryonic kidney (HEK) 293 cells. Cells were washed with ice-cold buffer A (20 mM HEPES pH 7.5, 10 mM KCl, 1.5 mM MgCl2, 1 mM EDTA and 1 mM DTT), suspended in 1 volume of buffer A, incubated on ice for 20 mins, and then disrupted by 15 passages through a 26-gauge needle. Cell extracts were purified by centrifugation at 15000 g for 12 mins and supernatants were stored at −80 ° C. For initiating caspase activation, either 100 nM of purified recombinant caspase-8 or 1 μM horse heart cytochrome c (Sigma) together with 1 mM dATP was added to extracts (Deveraux, Q. L., et al., (1998) EMBO J. 17, 2215-2223).
It has been proposed that Drosophila apoptosis-inducers such as Grim function as negative regulators of IAPs (Deveraux, Q. & Reed, J. C. (1998) Genes Dev. 13, 239-252; Wang, S. et al. (1999) Cell 98, 453-463). […]

CpIAP = target: T1, CpIAP (Cydia pomonella granulosis virus, UniProt P41436); assay: Grim peptide effect on CpIAP inhibition of mammalian caspases in vitro; format: biochemical, baculovirus
T1 construct: The complete ORF of CpIAP was subcloned into the EcoRI-EcoRV sites of pcDNA3-myc or the EcoRI-SalI sites in pGEX4T-1; GST (N); made in house; host or cells: E. coli BL21 (DE3) containing pT-Trx
T1 sequence (P41436 1-275): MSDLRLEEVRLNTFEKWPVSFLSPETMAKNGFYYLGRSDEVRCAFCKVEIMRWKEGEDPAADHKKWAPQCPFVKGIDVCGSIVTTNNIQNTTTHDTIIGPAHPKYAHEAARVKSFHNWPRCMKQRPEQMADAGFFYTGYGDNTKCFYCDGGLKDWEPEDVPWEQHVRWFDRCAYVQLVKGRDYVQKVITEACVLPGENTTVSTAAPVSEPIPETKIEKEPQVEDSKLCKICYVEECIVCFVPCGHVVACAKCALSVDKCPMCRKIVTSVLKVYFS

[35S]pro-caspase-9 = target: T2, [35S]pro-caspase-9 (mammalian, UniProt P55211 1-416, limits assumed); assay: GST pull-down of in vitro-translated [35S]pro-caspase-9 on glutathione-Sepharose, SDS-PAGE and autoradiography
T2 construct: also called in vitro-translated pro-caspase-9
T2 sequence (looked up): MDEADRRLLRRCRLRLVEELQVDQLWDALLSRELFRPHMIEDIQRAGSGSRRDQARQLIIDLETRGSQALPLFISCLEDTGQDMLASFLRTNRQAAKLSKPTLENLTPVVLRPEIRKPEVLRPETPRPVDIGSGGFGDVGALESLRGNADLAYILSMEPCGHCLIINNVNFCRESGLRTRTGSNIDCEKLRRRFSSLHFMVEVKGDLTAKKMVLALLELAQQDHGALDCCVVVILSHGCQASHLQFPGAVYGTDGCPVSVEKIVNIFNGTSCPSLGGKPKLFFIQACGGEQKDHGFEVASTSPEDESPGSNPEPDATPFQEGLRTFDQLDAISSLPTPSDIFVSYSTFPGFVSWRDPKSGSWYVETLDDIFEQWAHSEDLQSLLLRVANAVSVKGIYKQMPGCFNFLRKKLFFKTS

[2] = system: caspase-3 and similar DEVD-cleaving proteases in cell extracts treated with cyto c; assay: Cell-free caspase activation induced by cyto c in HEK 293 cytosolic extracts; format: biochemical, human; conditions: recombinant protein, cell extracts treated with cyto c
Method: as §1, §2
To further explore the mechanisms by which SfIAP and CpIAP inhibit mammalian apoptosis, a cell-free system in which exogenously added active caspase-8 or cyto c induces activation of caspase-3 and similar proteases, as measured by hydrolysis of Ac-DEVD-AFC (Quan, L. T. et al., (1995) J. Biol. Chem. 270, 10377-10379) was used. Caspase-8 and cyto c trigger the same apoptosis pathways in extracts which are activated by Fas and Bax in intact cells.

pro-caspase-9 = target: T3, pro-caspase-9 (Homo sapiens, UniProt P55211); assay: GST pull-down binding of [35S]-pro-caspase-9; design: species or system mammalian; conditions: GST fusion protein on glutathione-Sepharose
T3 construct: host or cells: cell-free in vitro transcription/translation
T3 sequence (P55211 1-416): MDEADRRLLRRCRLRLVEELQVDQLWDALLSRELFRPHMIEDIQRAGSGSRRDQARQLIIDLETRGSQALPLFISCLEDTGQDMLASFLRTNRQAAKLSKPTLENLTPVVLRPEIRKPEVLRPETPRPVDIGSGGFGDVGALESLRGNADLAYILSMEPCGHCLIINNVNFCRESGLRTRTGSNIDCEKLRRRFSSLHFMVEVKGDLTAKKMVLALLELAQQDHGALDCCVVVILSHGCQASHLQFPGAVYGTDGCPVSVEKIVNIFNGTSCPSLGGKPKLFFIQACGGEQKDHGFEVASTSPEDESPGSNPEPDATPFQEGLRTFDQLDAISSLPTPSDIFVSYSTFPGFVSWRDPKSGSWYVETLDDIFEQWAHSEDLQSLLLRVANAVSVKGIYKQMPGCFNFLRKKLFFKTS
Method: [^35S]Pro-caspase-9 was in vitro transcribed and translated in the presence of [^35S]L-methionine using TNT kit from Promega. Protein were desalted and exchanged into buffer (20 mM HEPES pH 7.5, 10 mM KCl, 1.5 mM MgCl2, 1 mM EDTA and 1 mM DTT) with Bio-spin P-6 columns (Bio-Rad). […] After incubation at 4 ° C. for 1 hour, beads were removed by centrifugation and washed twice with 0.5 ml of 50 mM Tris (pH 7.5), 150 mM NaCl, 2 mm DTT before analysis by SDS-PAGE and autoradiography.

GST-CpIAP = target: B4; assay: in vitro binding with recombinant purified caspase; method not described
[3] = target: T4, recombinant purified caspase-7 (mammalian, UniProt P55210 24-303); assay: as above
T4 construct: also called caspases-7
T4 sequence: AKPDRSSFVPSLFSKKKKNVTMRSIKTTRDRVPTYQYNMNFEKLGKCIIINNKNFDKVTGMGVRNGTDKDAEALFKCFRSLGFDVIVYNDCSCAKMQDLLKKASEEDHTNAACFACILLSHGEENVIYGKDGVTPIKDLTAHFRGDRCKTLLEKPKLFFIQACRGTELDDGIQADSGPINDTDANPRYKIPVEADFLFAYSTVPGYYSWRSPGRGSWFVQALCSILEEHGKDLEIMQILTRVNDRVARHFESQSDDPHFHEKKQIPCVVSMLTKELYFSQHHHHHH

[4] = target: recombinant active caspase-9 (caspase-9 lacking the CARD domain) (mammalian), P55211; assay: cell-based or functional assay
[5] = target: B3; assay: in vitro binding with recombinant purified caspase; method not described

Molecule: Grim peptide (IAP-binding domain of Grim, first 18 amino acids) (from UniProt Q24570 1-18)
- restoration of DEVD-cleaving caspase activity in cyto c-stimulated cell extracts suppressed by SfIAP [1]: 5 fold excess

Molecule: Grim peptide: peptide corresponding to the IAP-binding domain of Grim (first 18 amino acid of Grim) (MAIAYFIPDQAQLLARSY; UniProt Q24570 1-18, looked up, fragment)
- effect on SfIAP inhibition of cyto c-induced activation of DEVD-cleaving caspases (SfIAP): abrogated this inhibitory effect of SfIAP in a concentration-dependent manner; also recorded: negate the ability of SfIAP and CpIAP to inhibit mammalian caspases
- excess of peptide relative to SfIAP resulting in complete restoration of caspase activity (SfIAP): 5 fold
- effect on ability of CpIAP to inhibit mammalian caspases (CpIAP): negate the ability of SfIAP and CpIAP to inhibit mammalian caspases

B1: GST-XIAP-BIR1 (other, human, UniProt P98170 1-123, looked up, not shown: a dimerising Fc or GST)
chain: MTFNSFEGSKTCVPADINKEEEFVEEFNRLKTFANFPSGSPVSASTLARAGFLYTGEGDTVRCFSCHAAVDRWQYGDSAVGRHRKVSPNCRFINGFYLENSATQSTNSGIQNGQYKVENYLGS
notes: domain: BIR1; also called BIR1 domain of XIAP
- binding result ([35S]pro-caspase-9): no binding

B2: XIAP-BIR1: control protein consisting of the BIR1 domain of XIAP (protein)
chain: MTFNSFEGSKTCVPADINKEEEFVEEFNRLKTFANFPSGSPVSASTLARAGFLYTGEGDTVRCFSCHAAVDRWQYGDSAVGRHRKVSPNCRFINGFYLENSATQSTNSGIQNGQYKVENYLGS
modifications: left off: a dimerising Fc or GST
- effect on hydrolysis of Ac-DEVD-AFC (caspase activity) [2]: did not interfere with caspase activity
- binding to pro-caspase-9 (autoradiography) (pro-caspase-9): failed to bind caspase-9

Molecule: B3
- binding result (GST-CpIAP): no binding

Molecule: B4
- binding result [3]: no binding

B5: GST-SfIAP (other, not shown: a dimerising Fc or GST)
chain: MWSCSLPCWNTKKSGLQMDITKVASNGSSSTLTLFKSGSLEAKIRPLAPLMLPTPSYDSNAGSPSLSPSTPCSSSSFSIDKTDNHDTFGFSADTVDMRKEDERMKTFEKWPVSFLSGEQLARNGFYYLGRRDEARCAFCKVEIMRWVEGDDPAKDHQRWAPQCPFVRKLNGTAAADTGSSGQDECGARAAPSGTSPPRMAGPVHPRYASEAARLRSFKDWPRCMRQKPEELAEAGFFYTGQGDKTKCFYCDGGLKDWENHDVPWEQHARWFDRCAYVQLVKGREYVQKVISEACEVSASEAERDVAPARTAEPSPPAEAPENSVDDSKLCKICYAEERNVCFVPCGHVVACAKCALAADKCPMCRRTFQNAVRLYFS
notes: also called recombinant SfIAP; recombinant-purified SfIAP
- molar-excess relative to caspase-9 which produced ~50% inhibition of protease activity (Ac-LEHD-AFC substrate) (fold molar excess) [4]: 8
- binding result [5]: no binding
- binding result [3]: no binding
